Data taken from PMC5297747.

Legend:
[1] = target: bovine α-chymotrypsin (bovine)
[2] = target: bovine α-chymotrypsin (bovine); experiment: progress curve of protease inhibition; 40 °C; buffer B (100 mM HEPES-NaOH pH 7.5, 200 mM NaCl, 10 mM CaCl2, 0.01% triton X-100, 0.1% glycerol); 1 mM Suc-AAPF-pNA or MeO-SucAAPV-pNA as substrate; various concentrations of Pnserpin; absorption at 410 nm; kass = kunc × (1 + [S]/KM)

- stoichiometry of inhibition (SI), incubation at 20 °C; residual protease activity [1]: 9.49
- stoichiometry of inhibition (SI), incubation at 30 °C; residual protease activity [1]: 5.8
- stoichiometry of inhibition (SI), incubation at 40 °C; residual protease activity [1]: 4.76
- stoichiometry of inhibition (SI), incubation at 50 °C; residual protease activity [1]: 2.21
- kon [2]: 24600 M⁻¹ s⁻¹
Substance: Pnserpin (from UniProt B1YBN4 1-393) (natural protein)
